In patent US9957297B2, “Template-fixed peptidomimetics as inhibitors of FPR1” (POLYPHOR AG, priority 2011, dated 2018):
Bridges are numbered along the chain shown (N, C = ends). Primed or numbered codes have the meaning given here. [ ]: non-standard residue; d: D form. Phe(4-CF3) = N[C@@H](Cc1ccc(C(F)(F)F)cc1)C(=O)O; dPro(4S-NH2) = N[C@@H]1CN[C@@H](C(=O)O)C1; dTic = O=C(O)[C@H]1Cc2ccccc2CN1; dPip′ = not defined here

Molecular target: T1, Formyl-Peptide Receptor 1 (UniProt P21462 1-350, limits assumed)
T1 sequence (looked up): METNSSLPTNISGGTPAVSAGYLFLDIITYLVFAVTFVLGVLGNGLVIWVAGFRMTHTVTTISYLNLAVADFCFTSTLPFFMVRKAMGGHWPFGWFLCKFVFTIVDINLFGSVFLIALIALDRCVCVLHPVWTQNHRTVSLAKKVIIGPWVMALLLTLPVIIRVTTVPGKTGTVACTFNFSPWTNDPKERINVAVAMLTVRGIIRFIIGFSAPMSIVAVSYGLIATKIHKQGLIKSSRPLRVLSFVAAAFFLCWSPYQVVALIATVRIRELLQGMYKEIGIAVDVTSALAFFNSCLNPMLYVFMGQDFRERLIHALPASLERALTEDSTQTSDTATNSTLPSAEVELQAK
Test: cell-based or functional assay

B1: cyclo(-Tyr-His-Ala-Cys-Trp-Gly-^DPro-Trp-Thr-Ile-Cys-Tyr-Gln-Lys-^DAla-Pro-) (peptide)
peptide: cyclo(YHACWG[dP]WTICYQK[dA]P)
modifications: disulfide 4-11
SMILES: CC[C@H](C)[C@@H]1NC(=O)[C@H]([C@@H](C)O)NC(=O)[C@H](Cc2c[nH]c3ccccc23)NC(=O)[C@H]2CCCN2C(=O)CNC(=O)[C@H](Cc2c[nH]c3ccccc23)NC(=O)[C@@H]2CSSC[C@H](NC1=O)C(=O)N[C@@H](Cc1ccc(O)cc1)C(=O)N[C@@H](CCC(N)=O)C(=O)N[C@@H](CCCCN)C(=O)N[C@H](C)C(=O)N1CCC[C@H]1C(=O)N[C@@H](Cc1ccc(O)cc1)C(=O)N[C@@H](Cc1c[nH]cn1)C(=O)N[C@@H](C)C(=O)N2
β-Arrestin IC50: 133 nM

B2: cyclo(-Tyr-His-Ala-Cys-His-Gly-^DPro-Trp-Thr-Ile-Cys-Tyr-Gln-Lys-^DThr-Pro-) (peptide)
peptide: cyclo(YHACHG[dP]WTICYQK[dT]P)
modifications: disulfide 4-11
SMILES: CC[C@H](C)[C@@H]1NC(=O)[C@H]([C@@H](C)O)NC(=O)[C@H](Cc2c[nH]c3ccccc23)NC(=O)[C@H]2CCCN2C(=O)CNC(=O)[C@H](Cc2c[nH]cn2)NC(=O)[C@@H]2CSSC[C@H](NC1=O)C(=O)N[C@@H](Cc1ccc(O)cc1)C(=O)N[C@@H](CCC(N)=O)C(=O)N[C@@H](CCCCN)C(=O)N[C@H]([C@H](C)O)C(=O)N1CCC[C@H]1C(=O)N[C@@H](Cc1ccc(O)cc1)C(=O)N[C@@H](Cc1c[nH]cn1)C(=O)N[C@@H](C)C(=O)N2
β-Arrestin IC50: 641 nM

B3: cyclo(-Tyr-His-Lys-Cys-Phe(4CF3)-Gly-^DPro-Trp-Thr-Ile-Cys-Tyr-Glu-Lys-^DPro-Pro-) (peptide)
peptide: cyclo(YHKC[Phe(4-CF3)]G[dP]WTICYEK[dP]P)
modifications: disulfide 4-11
SMILES: CC[C@H](C)[C@@H]1NC(=O)[C@H]([C@@H](C)O)NC(=O)[C@H](Cc2c[nH]c3ccccc23)NC(=O)[C@H]2CCCN2C(=O)CNC(=O)[C@H](Cc2ccc(C(F)(F)F)cc2)NC(=O)[C@@H]2CSSC[C@H](NC1=O)C(=O)N[C@@H](Cc1ccc(O)cc1)C(=O)N[C@@H](CCC(=O)O)C(=O)N[C@@H](CCCCN)C(=O)N1CCC[C@@H]1C(=O)N1CCC[C@H]1C(=O)N[C@@H](Cc1ccc(O)cc1)C(=O)N[C@@H](Cc1c[nH]cn1)C(=O)N[C@@H](CCCCN)C(=O)N2
β-Arrestin IC50: 172 nM

B4: cyclo(-Tyr-His-Lys-Cys-His-Gly-^DPro-Trp-Thr-Ile-Cys-Tyr-Glu-Lys-^DLys-Glu-) (peptide)
peptide: cyclo(YHKCHG[dP]WTICYEK[dK]E)
modifications: disulfide 4-11
SMILES: CC[C@H](C)[C@@H]1NC(=O)[C@H]([C@@H](C)O)NC(=O)[C@H](Cc2c[nH]c3ccccc23)NC(=O)[C@H]2CCCN2C(=O)CNC(=O)[C@H](Cc2c[nH]cn2)NC(=O)[C@@H]2CSSC[C@H](NC1=O)C(=O)N[C@@H](Cc1ccc(O)cc1)C(=O)N[C@@H](CCC(=O)O)C(=O)N[C@@H](CCCCN)C(=O)N[C@H](CCCCN)C(=O)N[C@@H](CCC(=O)O)C(=O)N[C@@H](Cc1ccc(O)cc1)C(=O)N[C@@H](Cc1c[nH]cn1)C(=O)N[C@@H](CCCCN)C(=O)N2
β-Arrestin IC50: 124 nM

B5: cyclo(-Tyr-His-Lys-Cys-His-Gly-^DPro-Trp-Thr-Ile-Cys-Tyr-Glu-Lys-^DLys-Pro-) (peptide)
peptide: cyclo(YHKCHG[dP]WTICYEK[dK]P)
modifications: disulfide 4-11
SMILES: CC[C@H](C)[C@@H]1NC(=O)[C@H]([C@@H](C)O)NC(=O)[C@H](Cc2c[nH]c3ccccc23)NC(=O)[C@H]2CCCN2C(=O)CNC(=O)[C@H](Cc2c[nH]cn2)NC(=O)[C@@H]2CSSC[C@H](NC1=O)C(=O)N[C@@H](Cc1ccc(O)cc1)C(=O)N[C@@H](CCC(=O)O)C(=O)N[C@@H](CCCCN)C(=O)N[C@H](CCCCN)C(=O)N1CCC[C@H]1C(=O)N[C@@H](Cc1ccc(O)cc1)C(=O)N[C@@H](Cc1c[nH]cn1)C(=O)N[C@@H](CCCCN)C(=O)N2
β-Arrestin IC50: 385 nM

B6: cyclo(-Tyr-His-Lys-Cys-His-Gly-^DPro-Trp-Thr-Ile-Cys-Tyr-Glu-Lys-^DPip-Pro-) (peptide)
peptide: cyclo(YHKCHG[dP]WTICYEK[dPip′]P)
modifications: disulfide 4-11
β-Arrestin IC50: 29 nM

B7: cyclo(-Tyr-His-Lys-Cys-His-Gly-^DAla-Trp-Thr-Ile-Cys-Tyr-Glu-Lys-^DPro-Glu-) (peptide)
peptide: cyclo(YHKCHG[dA]WTICYEK[dP]E)
modifications: disulfide 4-11
SMILES: CC[C@H](C)[C@@H]1NC(=O)[C@H]([C@@H](C)O)NC(=O)[C@H](Cc2c[nH]c3ccccc23)NC(=O)[C@@H](C)NC(=O)CNC(=O)[C@H](Cc2c[nH]cn2)NC(=O)[C@@H]2CSSC[C@H](NC1=O)C(=O)N[C@@H](Cc1ccc(O)cc1)C(=O)N[C@@H](CCC(=O)O)C(=O)N[C@@H](CCCCN)C(=O)N1CCC[C@@H]1C(=O)N[C@@H](CCC(=O)O)C(=O)N[C@@H](Cc1ccc(O)cc1)C(=O)N[C@@H](Cc1c[nH]cn1)C(=O)N[C@@H](CCCCN)C(=O)N2
β-Arrestin IC50: 77 nM

B8: cyclo(-Tyr-His-Lys-Cys-His-Gly-^DPro-Trp-Thr-Ile-Cys-Tyr-Glu-Lys-^DPro((4S)OH)-Pro-) (peptide)
peptide: cyclo(YHKCHG[dP]WTICYEK[dPro((4S)OH)]P)
modifications: disulfide 4-11
β-Arrestin IC50: 39 nM

B9: cyclo(-Tyr-His-Lys-Cys-His-Gly-^DPro-Trp-Thr-Ile-Cys-Tyr-Glu-Lys-^DPro((4S)NH2)-Pro-) (peptide)
peptide: cyclo(YHKCHG[dP]WTICYEK[dPro(4S-NH2)]P)
modifications: disulfide 4-11
β-Arrestin IC50: 41 nM

B10: cyclo(-Tyr-His-Lys-Cys-Trp-Gly-^DPro-Trp-Thr-Ile-Cys-Tyr-Glu-Lys-^DLys-Pro-) (peptide)
peptide: cyclo(YHKCWG[dP]WTICYEK[dK]P)
modifications: disulfide 4-11
SMILES: CC[C@H](C)[C@@H]1NC(=O)[C@H]([C@@H](C)O)NC(=O)[C@H](Cc2c[nH]c3ccccc23)NC(=O)[C@H]2CCCN2C(=O)CNC(=O)[C@H](Cc2c[nH]c3ccccc23)NC(=O)[C@@H]2CSSC[C@H](NC1=O)C(=O)N[C@@H](Cc1ccc(O)cc1)C(=O)N[C@@H](CCC(=O)O)C(=O)N[C@@H](CCCCN)C(=O)N[C@H](CCCCN)C(=O)N1CCC[C@H]1C(=O)N[C@@H](Cc1ccc(O)cc1)C(=O)N[C@@H](Cc1c[nH]cn1)C(=O)N[C@@H](CCCCN)C(=O)N2
β-Arrestin IC50: 126 nM

B11: cyclo(-Tyr-His-Ala-Cys-Trp-Gly-^DPro-Trp-Thr-Ile-Cys-Tyr-Gln-Lys-^DLys-Pro-) (peptide)
peptide: cyclo(YHACWG[dP]WTICYQK[dK]P)
modifications: disulfide 4-11
SMILES: CC[C@H](C)[C@@H]1NC(=O)[C@H]([C@@H](C)O)NC(=O)[C@H](Cc2c[nH]c3ccccc23)NC(=O)[C@H]2CCCN2C(=O)CNC(=O)[C@H](Cc2c[nH]c3ccccc23)NC(=O)[C@@H]2CSSC[C@H](NC1=O)C(=O)N[C@@H](Cc1ccc(O)cc1)C(=O)N[C@@H](CCC(N)=O)C(=O)N[C@@H](CCCCN)C(=O)N[C@H](CCCCN)C(=O)N1CCC[C@H]1C(=O)N[C@@H](Cc1ccc(O)cc1)C(=O)N[C@@H](Cc1c[nH]cn1)C(=O)N[C@@H](C)C(=O)N2
β-Arrestin IC50: 195 nM

B12: cyclo(-Tyr-His-Lys-Cys-Tyr-Gly-^DPro-Trp-Thr-Ile-Cys-Tyr-Glu-Lys-^DPro-Pro-) (peptide)
peptide: cyclo(YHKCYG[dP]WTICYEK[dP]P)
modifications: disulfide 4-11
SMILES: CC[C@H](C)[C@@H]1NC(=O)[C@H]([C@@H](C)O)NC(=O)[C@H](Cc2c[nH]c3ccccc23)NC(=O)[C@H]2CCCN2C(=O)CNC(=O)[C@H](Cc2ccc(O)cc2)NC(=O)[C@@H]2CSSC[C@H](NC1=O)C(=O)N[C@@H](Cc1ccc(O)cc1)C(=O)N[C@@H](CCC(=O)O)C(=O)N[C@@H](CCCCN)C(=O)N1CCC[C@@H]1C(=O)N1CCC[C@H]1C(=O)N[C@@H](Cc1ccc(O)cc1)C(=O)N[C@@H](Cc1c[nH]cn1)C(=O)N[C@@H](CCCCN)C(=O)N2
β-Arrestin IC50: 22 nM

B13: cyclo(-Tyr-His-Lys-Cys-Trp-Gly-^DPro-Trp-Thr-Ile-Cys-Tyr-Glu-Lys-^DAla-Pro-) (peptide)
peptide: cyclo(YHKCWG[dP]WTICYEK[dA]P)
modifications: disulfide 4-11
SMILES: CC[C@H](C)[C@@H]1NC(=O)[C@H]([C@@H](C)O)NC(=O)[C@H](Cc2c[nH]c3ccccc23)NC(=O)[C@H]2CCCN2C(=O)CNC(=O)[C@H](Cc2c[nH]c3ccccc23)NC(=O)[C@@H]2CSSC[C@H](NC1=O)C(=O)N[C@@H](Cc1ccc(O)cc1)C(=O)N[C@@H](CCC(=O)O)C(=O)N[C@@H](CCCCN)C(=O)N[C@H](C)C(=O)N1CCC[C@H]1C(=O)N[C@@H](Cc1ccc(O)cc1)C(=O)N[C@@H](Cc1c[nH]cn1)C(=O)N[C@@H](CCCCN)C(=O)N2
β-Arrestin IC50: 126 nM

B14: cyclo(-Tyr-His-Ala-Cys-His-Gly-^DAla-Trp-Thr-Ile-Cys-Tyr-Gln-Lys-^DPro-Pro-) (peptide)
peptide: cyclo(YHACHG[dA]WTICYQK[dP]P)
modifications: disulfide 4-11
SMILES: CC[C@H](C)[C@@H]1NC(=O)[C@H]([C@@H](C)O)NC(=O)[C@H](Cc2c[nH]c3ccccc23)NC(=O)[C@@H](C)NC(=O)CNC(=O)[C@H](Cc2c[nH]cn2)NC(=O)[C@@H]2CSSC[C@H](NC1=O)C(=O)N[C@@H](Cc1ccc(O)cc1)C(=O)N[C@@H](CCC(N)=O)C(=O)N[C@@H](CCCCN)C(=O)N1CCC[C@@H]1C(=O)N1CCC[C@H]1C(=O)N[C@@H](Cc1ccc(O)cc1)C(=O)N[C@@H](Cc1c[nH]cn1)C(=O)N[C@@H](C)C(=O)N2
β-Arrestin IC50: 458 nM

B15: cyclo(-Tyr-His-Lys-Cys-His-Gly-^DPro-Trp-Thr-Ile-Cys-Tyr-Glu-Lys-^DTic-Pro-) (peptide)
peptide: cyclo(YHKCHG[dP]WTICYEK[dTic]P)
modifications: disulfide 4-11
SMILES: CC[C@H](C)[C@@H]1NC(=O)[C@H]([C@@H](C)O)NC(=O)[C@H](Cc2c[nH]c3ccccc23)NC(=O)[C@H]2CCCN2C(=O)CNC(=O)[C@H](Cc2c[nH]cn2)NC(=O)[C@@H]2CSSC[C@H](NC1=O)C(=O)N[C@@H](Cc1ccc(O)cc1)C(=O)N[C@@H](CCC(=O)O)C(=O)N[C@@H](CCCCN)C(=O)N1Cc3ccccc3C[C@@H]1C(=O)N1CCC[C@H]1C(=O)N[C@@H](Cc1ccc(O)cc1)C(=O)N[C@@H](Cc1c[nH]cn1)C(=O)N[C@@H](CCCCN)C(=O)N2
β-Arrestin IC50: 56 nM

B16: cyclo(-Tyr-His-Lys-Cys-His-Gly-^DPro-Trp-Thr-Ile-Cys-Tyr-Glu-Lys-^DAla-Pro-) (peptide)
peptide: cyclo(YHKCHG[dP]WTICYEK[dA]P)
modifications: disulfide 4-11
SMILES: CC[C@H](C)[C@@H]1NC(=O)[C@H]([C@@H](C)O)NC(=O)[C@H](Cc2c[nH]c3ccccc23)NC(=O)[C@H]2CCCN2C(=O)CNC(=O)[C@H](Cc2c[nH]cn2)NC(=O)[C@@H]2CSSC[C@H](NC1=O)C(=O)N[C@@H](Cc1ccc(O)cc1)C(=O)N[C@@H](CCC(=O)O)C(=O)N[C@@H](CCCCN)C(=O)N[C@H](C)C(=O)N1CCC[C@H]1C(=O)N[C@@H](Cc1ccc(O)cc1)C(=O)N[C@@H](Cc1c[nH]cn1)C(=O)N[C@@H](CCCCN)C(=O)N2
β-Arrestin IC50: 65 nM
